Reference: patent US20250099622A1, “COMPOSITIONS AND METHODS FOR EXPRESSING THERAPEUTICS” (priority 2022, published 2025)

How the values were obtained:
[1] = test system: retinal ganglion cells (RGC); assay: NMDA excitotoxicity mouse model: RGC count by retinal Flatmount; format: in vivo, C57BL/6); details: AAV 4E+8 vg/eye IVT 28 days prior to NMDA
Description: This study was for evaluating the effect of adeno-associated viral (AAV) vectors on retinal ganglion cell protection following damage caused via N-methyl-D-aspartate (NMDA) administration in the mouse. […] Groups 7 and 8 were added to test a higher concentration of MK-801. […] This study was conducted in wild type mice (Mus musculus, C57BL/6).
300 μL of the 5 mM NMDA stock was combined with 300 μL of sterile PBS and 1 μL as injected on Day 0 for a final concentration of 2.5 mM NMDA.
300 μL of the 5 mM NMDA stock as combined with 300 μL of sterile-filtered MK-801 and 1 μL was injected on Day 0 for a final concentration of 2.5 mM NMDA/100 μM MK-801.
300 μL of the 5 mM NMDA stock was combined with 300 μL of sterile PBS and 1 μL was injected on Day 0 for a final concentration of 2.5 mM NMDA.
On Day −28 or Day 0 based on the experimental design, mice were given buprenorphine 0.01-0.05 mg/kg subcutaneously (SQ). Animals were then tranquilized for the intravitreal injections with ketamine/xylazine or inhaled isoflurane and one drop of 0.5% proparacaine HCl was applied to both eyes. The conjunctiva was gently grasped with Dumont #4 forceps, and the injection was made using a 33 G needle and a Hamilton syringe. After dispensing the syringe contents, the syringe needle was slowly withdrawn. Following the injection procedure, 1 drop of Ofloxacin ophthalmic solution was applied topically to the ocular surface with eye lube.
Eyes were enucleated and immediately fixed in 4% paraformaldehyde in phosphate-buffered saline (PBS) and stored overnight at 4° C. The following day, the eyes were transferred to cold immunocytochemistry (ICC) buffer (PBS containing 0.5% BSA and 0.2% Tween 20) until processing. Using a dissecting microscope, the eye was carefully trimmed of extraneous tissue at the limbus and, using fine curved scissors, the anterior chamber was removed. Retinas in the eye cup were rinsed with cold ICC buffer. Eye cups were placed in cold ICC buffer containing 1/100 rat anti-CNP36 (Groups 3-6 only; resuspended at 0.5 mg/mL in PBS) for 3 hours at 4° C. Eye cups were then washed extensively and stained with 1/200 donkey anti-rat Cy3 and 1/1,000 DAPI for 2-3 hours at 4° C. Groups 1 and 2 were stained with 1/500 TUJ-1 and 1/1000 DAPI, while Groups 7 and 8 were incubated with 1/1,000 DAPI alone. Eye cups were washed extensively but gently with cold ICC buffer. Using fine curved scissors and an eyelash knife, the retina was detached from the optic nerve head and removed from the RPE/choroid. Radial cuts were then made toward the center and retinas were flat mounted, covered, and sealed. 2D fluorescent microscopy images were acquired using an Olympus Bx63 upright fluorescent microscope. […] Images at 20× were acquired in 4 quadrants and a central 248.1×325.7 μm region was analyzed for RGC counts using Olympus cellSens and ImageJ software.
Groups 1 and 2 were stained with DAPI and TUJ-1 and images were captured at 20× (FIG. 10A). RGCs were counted in four quadrants, and cells/mm2 were averaged across each group.
Groups 3-8 were stained for DAPI and four images were captured for each retina at 20× approximately 600 μm from the optic nerve head. RGCs were counted in a central 248.1×325.7 μm region and cells/mm2 were averaged over each group (FIG. 10C).
The statistical analyses were performed on the Group 3-8 RGC data (one-way ANOVA followed by multiple comparisons using the Dunnett statistical hypothesis comparison).

[2] = molecular target: T1, Human NPR-B (Homo sapiens, UniProt P20594); assay: Biacore SPR kinetic affinity binding to immobilized NPR-B; details: Table 32 summary of affinity
T1 construct: purchased R&D system
T1 sequence (P20594 23-458 limits assumed): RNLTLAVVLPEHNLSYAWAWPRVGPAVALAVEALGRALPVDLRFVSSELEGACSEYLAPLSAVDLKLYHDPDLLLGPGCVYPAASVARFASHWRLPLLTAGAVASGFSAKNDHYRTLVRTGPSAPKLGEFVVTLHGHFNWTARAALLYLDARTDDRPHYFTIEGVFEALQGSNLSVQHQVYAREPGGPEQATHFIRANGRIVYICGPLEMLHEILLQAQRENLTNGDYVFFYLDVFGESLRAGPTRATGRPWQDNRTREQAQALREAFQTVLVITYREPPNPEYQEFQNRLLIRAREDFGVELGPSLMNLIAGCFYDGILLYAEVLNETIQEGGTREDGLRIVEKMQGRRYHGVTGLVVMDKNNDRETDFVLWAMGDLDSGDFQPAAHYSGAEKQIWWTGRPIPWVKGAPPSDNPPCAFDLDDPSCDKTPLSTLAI
Description: The biological function of these purified protein was assayed for their stimulation of production of cGMP, using NPR-B receptor positive cell line, NIH/3T3 and NPR-B negative cell line HEK293 cells. The determination of cGMP was assay by ELISA using commercial CNP as standard curves. […] Surface preparation. NBR-B was immobilized at different levels in three flow cells via standard amine coupling, leaving Fc 1 unmodified to serve as a reference. All surface plasmon resonance (SPR) analysis was performed on a BIAcore 3000 system using series CM5 sensor chips. Data processing and analysis were performed using BIAevaluation software. All sensorgrams were double referenced by subtracting the response on a reference flow cell and a blank sample. Human NPR-B (R&D system) was covalently attached to a CM5 chip via amine coupling. A surface density of 6600 RU was used for measurements with natriuretic peptides Sequential injections of CNP (0.5-8 nM) were performed at a flow rate of […] (300 s for each), followed by a dissociation time of 900 s. […] Kinetic parameters were calculated assuming a simple 1:1 (Langmuir) binding. […] All SPR analysis was performed on a BIAcore 3000 system using series CM5 sensor chips. Data processing and analysis were performed using BIAevaluation software. All sensorgrams were double referenced by subtracting the response on a reference flow cell and a blank sample. Human NPR-B (R&D system) was covalently attached to a CM5 chip via amine coupling. A surface density of 3100 RU was used for measurements with natriuretic peptides Sequential injections of AMI263 (FC4-CNP) (0.125-2 nM) were performed at a flow rate of […] (300 s for each), followed by a dissociation time of 900 s. […] Kinetic parameters were calculated assuming a simple 1:1 (Langmuir) binding. […] All SPR analysis was performed on a BIAcore 3000 system using series CM5 sensor chips. Data processing and analysis were performed using BIAevaluation software. All sensorgrams were double referenced by subtracting the response on a reference flow cell and a blank sample. Human NPR-B (R&D system) was covalently attached to a CM5 chip via amine coupling. […] Kinetic parameters were calculated assuming a simple 1:1 (Langmuir) binding. […] All SPR analysis was performed on a BIAcore 3000 system using series CM5 sensor chips. Data processing and analysis were performed using BIAevaluation software. All sensorgrams were double referenced by subtracting the response on a reference flow cell and a blank sample. Human NPR-B (R&D system) was covalently attached to a CM5 chip via amine coupling. A surface density of 3100 RU was used for measurements with natriuretic peptides Sequential injections of AMI263 (FC4-CNP) (0.5-300 nM) were performed at a flow rate of […] (300 s for each), followed by a dissociation time of 900 s. […] Kinetic parameters were calculated assuming a simple 1:1 (Langmuir) binding. […] All SPR analysis was performed on a BIAcore 3000 system using series CM5 sensor chips. Data processing and analysis were performed using BIAevaluation software. All sensorgrams were double referenced by subtracting the response on a reference flow cell and a blank sample. Human NPR-B (R&D system) was covalently attached to a CM5 chip via amine coupling.

[3] = molecular target: T2, NPR-B receptor positive cell line, NIH/3T3 (Mus musculus, UniProt Q6VVW5); assay: Stimulation of cGMP production in NPR-B positive cells (cGMP ELISA); format: cell-based; details: FIG. 7A
T2 construct: natrieuretic peptide type C receptor B (NPR-B) positive cell line, NIH/3T3 and the negative cell line of HEK293 cells; endogenous in cells; host or cells: NIH/3T3
T2 sequence (Q6VVW5 17-1047): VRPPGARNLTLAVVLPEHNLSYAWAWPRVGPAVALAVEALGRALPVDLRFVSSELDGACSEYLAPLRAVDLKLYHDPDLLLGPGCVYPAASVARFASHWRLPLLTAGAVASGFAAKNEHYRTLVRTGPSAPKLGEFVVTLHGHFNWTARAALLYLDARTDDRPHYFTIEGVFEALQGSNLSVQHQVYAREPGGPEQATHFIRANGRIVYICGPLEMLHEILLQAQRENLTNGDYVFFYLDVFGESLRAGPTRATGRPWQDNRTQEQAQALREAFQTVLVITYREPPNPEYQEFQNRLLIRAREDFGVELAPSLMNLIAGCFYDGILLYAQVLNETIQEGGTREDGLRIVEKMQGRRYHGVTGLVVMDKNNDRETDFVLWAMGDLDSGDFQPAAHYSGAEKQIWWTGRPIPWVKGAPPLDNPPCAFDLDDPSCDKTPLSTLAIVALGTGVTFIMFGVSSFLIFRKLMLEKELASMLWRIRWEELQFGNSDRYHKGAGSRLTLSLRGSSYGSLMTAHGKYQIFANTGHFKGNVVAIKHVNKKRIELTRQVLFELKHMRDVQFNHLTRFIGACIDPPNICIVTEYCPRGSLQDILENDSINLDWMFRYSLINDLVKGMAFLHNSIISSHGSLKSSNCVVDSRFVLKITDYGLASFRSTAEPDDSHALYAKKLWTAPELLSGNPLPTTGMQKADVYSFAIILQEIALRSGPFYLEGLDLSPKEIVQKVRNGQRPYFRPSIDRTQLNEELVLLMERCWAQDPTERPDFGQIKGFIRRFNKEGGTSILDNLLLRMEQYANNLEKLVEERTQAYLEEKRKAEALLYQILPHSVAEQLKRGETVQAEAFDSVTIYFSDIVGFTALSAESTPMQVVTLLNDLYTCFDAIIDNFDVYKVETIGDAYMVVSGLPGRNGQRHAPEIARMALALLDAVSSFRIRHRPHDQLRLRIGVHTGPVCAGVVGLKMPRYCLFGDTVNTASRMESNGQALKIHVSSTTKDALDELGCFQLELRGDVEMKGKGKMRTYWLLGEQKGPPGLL
Description: The biological function of these purified protein was assayed for their stimulation of production of cGMP, using NPR-B receptor positive cell line, NIH/3T3 and NPR-B negative cell line HEK293 cells. The determination of cGMP was assay by ELISA using commercial CNP as standard curves. […] Surface preparation. NBR-B was immobilized at different levels in three flow cells via standard amine coupling, leaving Fc 1 unmodified to serve as a reference. All surface plasmon resonance (SPR) analysis was performed on a BIAcore 3000 system using series CM5 sensor chips. Data processing and analysis were performed using BIAevaluation software. All sensorgrams were double referenced by subtracting the response on a reference flow cell and a blank sample. Human NPR-B (R&D system) was covalently attached to a CM5 chip via amine coupling. A surface density of 6600 RU was used for measurements with natriuretic peptides Sequential injections of CNP (0.5-8 nM) were performed at a flow rate of […] (300 s for each), followed by a dissociation time of 900 s. […] Kinetic parameters were calculated assuming a simple 1:1 (Langmuir) binding. […] Kinetic parameters were calculated assuming a simple 1:1 (Langmuir) binding. […] Kinetic parameters were calculated assuming a simple 1:1 (Langmuir) binding. […] Kinetic parameters were calculated assuming a simple 1:1 (Langmuir) binding. […]

For “AMI088: purified fusion protein Fc1-(G4S)4-CNP36 (IgG1 Fc), SEQ ID NO: 133”, the “RGC counts compared to sham AAV + NMDA group” value [1] was “higher RGC counts”, the ka [2] was 4.09E+07 and the kd [2] was 2.96E−05. The “cGMP production stimulated by AAV vector encoded CNP or CNP-Fc” value [3] was “highest level of cGMP”.
